Test results taken from patent US11180770B2, “HPPD variants and methods of use” (BASF Agricultural Solutions Seed US LLC, priority 2017, dated 2021).
Changes are numbered by the printed parent chain.

B1: 49 (protein)
chain: MADLYENPMGLMGFEFIEFASPTPGTLEPIFEIMGFTKVATHRSKNVHLYRQGEINLILNNEPNSIASYFAAEHGPSVCGMAFRVKDSQKAYNRALELGAQPIHIDTGPMELNLPAIKGIGGAPLYLIDRFGEGSSIYDIDFVYLEGVERNPVGAGLKVIDHLTHNVYRGRMVYWANFYEKLFNFREARYFDIKGEYTGLTSKAMSAPDGMIRIPLNEESSKGAGQIEEFLMQFNGEGIQHVAFLTDDLVKTWDALKKIGMRFMTAPPDNYYEMLEGRLPDHGEPVDQLQARGILLDGSSVEGDKRLLLQIFSETLMGPVFFEFIQRKGDDGFGPHSFKVLFEQMERDQVRRGVLTAD
modifications: mutant HPPD polypeptide
B2: 64 (protein)
chain: B1 chain with P268A, N270S
modifications: mutant HPPD polypeptide
B3: 67 (protein)
chain: B1 chain with R213K, P268A, N270S, T315R
modifications: mutant HPPD polypeptide
B4: 56 (protein)
chain: B1 chain with P268A, M345I
modifications: mutant HPPD polypeptide
B5: 61 (protein)
chain: B1 chain with P268A, N270S, Q344S, M345I
modifications: mutant HPPD polypeptide
B6: 3 (protein)
chain: B1 chain with P268A, N270T, H336D, Q344S, M345I
modifications: mutant HPPD polypeptide
B7: 59 (protein)
chain: B1 chain with P268A, N270S, H336D, M345K
modifications: mutant HPPD polypeptide
B8: 70 (protein)
chain: B1 chain with R213K, P268A, N270S, T315Q
modifications: mutant HPPD polypeptide
B9: 63 (protein)
chain: B1 chain with R213K, P215A, P268A, N270S, M345I
modifications: mutant HPPD polypeptide
B10: 50 (protein)
chain: B1 chain with P268S
modifications: mutant HPPD polypeptide
B11: 5 (protein)
chain: B1 chain with N270T, H336D, Q344S, M345I
modifications: mutant HPPD polypeptide
B12: 68 (protein)
chain: B1 chain with P268A, N270S, T315Q
modifications: mutant HPPD polypeptide
B13: 53 (protein)
chain: B1 chain with P268A, H336D, M345V
modifications: mutant HPPD polypeptide
B14: 55 (protein)
chain: B1 chain with P268A, Q344S, M345K
modifications: mutant HPPD polypeptide
B15: 54 (protein)
chain: B1 chain with P268A, H336D, M345K
modifications: mutant HPPD polypeptide
B16: 57 (protein)
chain: B1 chain with P268A, M345K
modifications: mutant HPPD polypeptide
B17: 52 (protein)
chain: B1 chain with P268A, H336D, M345I
modifications: mutant HPPD polypeptide
B18: 69 (protein)
chain: B1 chain with P268A, N270S, T315R
modifications: mutant HPPD polypeptide
B19: 62 (protein)
chain: B1 chain with P268A, N270S, Q344S
modifications: mutant HPPD polypeptide
B20: 58 (protein)
chain: B1 chain with P268A, N270S, H336D, Q344S, M345I
modifications: mutant HPPD polypeptide
B21: 65 (protein)
chain: B1 chain with P268A, N270S, T315R, Q344S
modifications: mutant HPPD polypeptide
B22: 4 (protein)
chain: B1 chain with P268G, N270T, H336D, Q344S, M345I
modifications: mutant HPPD polypeptide
B23: 60 (protein)
chain: B1 chain with M172I, V173D, P268A, N270S, H336D, Q344S, M345K
modifications: mutant HPPD polypeptide
B24: 66 (protein)
chain: B1 chain with R213K, P268A, N270S
modifications: mutant HPPD polypeptide
B25: 51 (protein)
chain: B1 chain with P268A, H336D, Q344S, M345K
modifications: mutant HPPD polypeptide
B26: 2 (protein)
chain: B1 chain with N270T, H336W, S337N, K339A, V340Q, Q344S, M345I
modifications: mutant HPPD polypeptide
B27: 71 (protein)
chain: B1 chain with P215L, N270T, H336F, S337N, V340E, Q344S, M345I
modifications: mutant HPPD polypeptide

Test system: HPPD polypeptides
Assay: coupled HPPD activity assay: turnover and residual turnover in crude extracts
Format: biochemical, Pseudomonas fluorescens
Conditions: 100 μM Cmpd. 1; signal change with inhibitor divided by signal change without inhibitor
Experimental: The activity of HPPD polypeptides was determined in absence or presence of HPPD inhibitors using the coupled HPPD activity assay (FIG. 1).
For the determination of the residual activity, the apparent kinetic constant (kapp) of the determined substrate conversion was measured as kinetic changes in absorbance (OD) at 320 nm in a coupled assay, in that homogentisate (HGA) formed by HPPD from HPP is directly converted into the well absorbing molecule maleylacetoacetate (MAA) by a second enzyme homogentisate dioxygenase (HGD), applied in excess uniformly in all assays (see FIG. 1). The measurements were performed in 384 micro titer plates (Greiner Bio-One GmbH, Frickenhausen, Germany) by plate readers (Tecan infinite M1000 or M1000PRO, Tecan, Männedorf, Switzerland). The kcat/kM ratio of an enzymatic activity is proportional to the apparent kinetic constant kapp and is proportional to kcat/kM*[E] ([E]=enzyme concentration). […] As both kapp measurements in the presence and absence of inhibitor were performed by use of the identical enzyme sample, crude or purified, and thereby at the same enzyme concentration, the enzyme concentration eliminates from the calculation of residual activity and the ratio of both kapp directly indicates the change of kM due to the inhibition.
The assay solution used for determination of residual activities in raw HPPD polypeptide samples was composed by 200 mM sodium phosphate (Merck, Darmstadt, Germany, pH 7.0), 5 mM MgCl2 (Merck, Darmstadt, Germany), 20 mM ascorbate (Sigma-Aldrich, St. Louis, USA), 1 mM DTT (Sigma-Aldrich, St. Louis, USA), 0.1% Pluronic F-68 (Sigma-Aldrich, St. Louis, USA), 40 μM FeSO4 (Sigma-Aldrich, St. Louis, USA), about 8 mg/ml purified HGD and 500 μM HPP from a 1 M stock solution in DMSO (Sigma-Aldrich, St. Louis, USA) and equilibrated for 20 min on ice. For every HPPD polypeptide sample two assays were performed in quadruplets, whereby 5 μl of HPPD polypeptide sample were mixed firstly with 5 μl buffer (1×BugBuster®; (Merck, Darmstadt, Germany); in 140 mM Tris, pH 7.8, with 1:25000 diluted BNase®; Qiagen, Hilden, Germany)) or 5 μl inhibitor diluted in the same buffer from a 0.1 M stock solution in DMSO (200 μM resulting in 100 μM in the HPPD polypeptide/inhibitor sample) in the reference and inhibition assay, respectively, and subsequently with 10 μl assay solution. The change in absorbance at 320 nm was followed in 1 min intervals for 30 min. The kapp values were calculated as signal slope over time in the early phase of the kinetic reaction, usually for the first 5-10 minutes of the measurements. Additionally and according to the calculated residual activity, the total conversion, i.e. the absolute change in signal, in the 30 min timeframe was monitored as measure of turnover, and a residual turnover was calculated by dividing the change in signal in the presence of inhibitor by the change in signal in the reference sample without inhibitor.
Residual turnover were determined according to Example 3 by measuring total change in signal in the presence and absence of Cmpd. 1 (2-chloro-3-(methylsulfanyl)-N-(1-methyl-1H-tetrazol-5-yl)-4-(trifluoromethyl)benzamide). For each mutant HPPD polypeptide, the total change in signal without HPPD inhibitor herbicides served for normalization of the total change in signal in the presence of the herbicide.

Molecule	Residual turnover [%]
B1	33
B2	47
B3	64
B4	57
B5	40
B6	64
B7	56
B8	71
B9	68
B10	44
B11	38
B12	64
B13	54
B14	50
B15	66
B16	59
B17	47
B18	66
B19	37
B20	45
B21	54
B22	44
B23	45
B24	56
B25	56

Same assay, conditions: absence of Cmpd. 1; high substrate concentration; kinetic changes in absorbance (OD) at 320 nm, 30 min

Molecule	Turnover
B1	0.316
B2	0.242
B3	0.335
B4	0.152
B5	0.229
B6	0.096
B7	0.131
B8	0.338
B9	0.23
B10	0.315
B11	0.157
B12	0.346
B13	0.199
B14	0.189
B26	0.060
B15	0.089
B16	0.167
B17	0.189
B18	0.36
B19	0.308
B20	0.144
B21	0.327
B22	0.126
B23	0.103
B27	0.044
B24	0.336
B25	0.131

Same assay, conditions: presence of 100 μM Cmpd. 1; high substrate concentration; changes in absorbance (OD) at 320 nm

Molecule	Residual turnover
B1	0.103
B2	0.114
B3	0.215
B4	0.086
B5	0.091
B6	0.061
B7	0.074
B8	0.240
B9	0.156
B10	0.138
B11	0.059
B12	0.223
B13	0.107
B14	0.095
B26	0.026
B15	0.059
B16	0.099
B17	0.088
B18	0.237
B19	0.115
B20	0.065
B21	0.177
B22	0.055
B23	0.046
B27	0.022
B24	0.187
B25	0.074
